Measurements from paper PMC5156300 (mBio, 2016).

Molecular target: T1, NP from influenza virus A/WSN/33 with a C-terminal His tag (Influenza A virus A/WSN/33), P15682
T1 chain: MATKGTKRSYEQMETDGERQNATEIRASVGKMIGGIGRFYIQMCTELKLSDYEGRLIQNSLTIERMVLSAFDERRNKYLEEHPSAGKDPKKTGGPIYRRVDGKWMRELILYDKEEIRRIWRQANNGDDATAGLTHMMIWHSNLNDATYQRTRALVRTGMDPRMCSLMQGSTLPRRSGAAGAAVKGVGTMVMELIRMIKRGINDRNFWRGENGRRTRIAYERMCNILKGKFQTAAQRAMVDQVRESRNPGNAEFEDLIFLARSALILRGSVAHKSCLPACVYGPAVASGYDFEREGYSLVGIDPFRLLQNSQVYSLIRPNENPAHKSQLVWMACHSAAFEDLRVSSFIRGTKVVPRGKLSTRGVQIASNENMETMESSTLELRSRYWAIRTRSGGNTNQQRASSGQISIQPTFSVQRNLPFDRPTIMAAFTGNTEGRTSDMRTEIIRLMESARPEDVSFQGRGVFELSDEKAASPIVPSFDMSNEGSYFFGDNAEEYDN
Assay: crystal structure
Settings: remark: other sources report otherwise

B1: NP from influenza virus A/WSN/33 with a C-terminal His tag, P15682 1-498 (natural protein)
chain: MATKGTKRSYEQMETDGERQNATEIRASVGKMIGGIGRFYIQMCTELKLSDYEGRLIQNSLTIERMVLSAFDERRNKYLEEHPSAGKDPKKTGGPIYRRVDGKWMRELILYDKEEIRRIWRQANNGDDATAGLTHMMIWHSNLNDATYQRTRALVRTGMDPRMCSLMQGSTLPRRSGAAGAAVKGVGTMVMELIRMIKRGINDRNFWRGENGRRTRIAYERMCNILKGKFQTAAQRAMVDQVRESRNPGNAEFEDLIFLARSALILRGSVAHKSCLPACVYGPAVASGYDFEREGYSLVGIDPFRLLQNSQVYSLIRPNENPAHKSQLVWMACHSAAFEDLRVSSFIRGTKVVPRGKLSTRGVQIASNENMETMESSTLELRSRYWAIRTRSGGNTNQQRASSGQISIQPTFSVQRNLPFDRPTIMAAFTGNTEGRTSDMRTEIIRLMESARPEDVSFQGRGVFELSDEKAASPIVPSFDMSNEGSYFFGDNAEEYDN
In the case of B1, the stoichiometry N is reported as 3.
